From the domain aggregation screens of Martell et al. (2025)

Assay: soluble fraction after stress (log2 fold change); higher = more stays soluble; pooled small domains, quantitative proteomics
Conditions: stress: 50 degC
In short: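 Custom libraries of small protein domains were pooled and measured in a high-throughput format, with quantitative proteomics as the read-out. Each library was stressed at 50°C. The value is the log2 fold change in the amount of each protein that stays soluble after stress, used as a measure of aggregation propensity; higher values mean more of the protein stays soluble.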

Row | Sequence | soluble fraction (log2)
1 | HMNSHKIIDRLNQMITEKDLSEEMPAITEAFKNNERSAEDLKKYVAENLSKKLNAEEREKFVSLILQYRN | 0.039
2 | HMNSILFAITKEGGVVYGGKPVGVNGVRPLVRRLLQSEEMPVILQVDEKADAGLVIRVIDESKLGGASKV | -0.269
3 | HMNSIQEQIEKYVYSLAPVTIERYESLKNGDIEDIEFEKLRKSISSKIINEKIDNKKQVAILSHLKKMYSD | 0.0107
4 | HMNSKIIVESIIKSKNGIAKVADLVEGGVSRQSIKKMYADGYIKRISRGYYTLTSEPVSSDEQVISS | -0.333
5 | HMNSKMTYSELITSMENKEVESVKISSSGDVASVKLKNSKTEKEVKIPSLDSFMTYTEQYLKTGEITLEE | 0.175
6 | HMNSKMTYSELVTNITNKEVESIKISSTGSTASVKLKNSKSEKEVNIPSLDSFMSYTEEYLKTGDFTLDEE | -0.144
7 | HMNSLKNKNNLIALVGASNDKNKYGNKILLDLVSKGHNVVPINPKEDTVAGLKSYNNVSELSEKPSI | -0.211
8 | HMNSLPFSNFMNEVEAGRVVEVKIQGNNISGVLANGKTFSTYSPNYPELVEKLSSNGVSIVATPQ | 0.153
9 | HMNSRTLAYSDFIRKVDKGEVSAVVIDGEQVQVQTKDGQTFVTIQPQSEQMNDKLVEQLIAKDISVKAERQ | 0.158
10 | HMNSSLFLARQVHALRKKAGLTLQQLSRKSDVSVSTLSKIEKGQLSPTYEKIVSLARGLDVPIAALFHE | -0.976
11 | HMNSSTVDLAKEFLIDLLSSVEKMPASEVQEEAKNAGYSVASIRRAKDNLNIKPFKDGSAWYWKLPSIFK | -0.114
12 | HMNSSTYIVTFKVDGEEDIVETYQWGDRIIVPEVEAKDDYVFIGWDAQIPEFMPERNLEFTAI | -1.14
13 | HMNSTNYQVIITANGGLNIRAGASTAYARIGGYAKGTVVTILAESNGFGKTDKGWISLNYTSKDLD | -3.07
14 | HMNTAALSLQRRNEIKKWLLEEKTLTVAALSNRFNVTYETIRRDLEILEKEGFLKKVYGGAALNERV | -0.0358
15 | HMNTAIDGLIEKVGMFAMEKKAISVDQVKENFSINGEQAESVIKQLETIGVLGKKNEDGTHTVM | 0.0766
16 | HMNTDALIGKTGYVTEIVGERHGRIQFSGGEWSARTEGVSIPVGAEVRVDRIDGATAVVSAV | 0.115
17 | HMNTDVEKQKVFTALFDDYFRRNSMTSLEKQLFLTALKTNFQNAQKTVAKDHPYYATYSLIISAIENYR | 0.145
18 | HMNTEEKILEKEFLMLYSELGLQPKNIYELMENTGLKYEKLVEMLLQLQLKGLVEQPSYNYYSRL | -1.02
19 | HMNTEEVGSYLKKLRLEHSFTQKELAGKLYITHQAVSNWEKGKALPDIGILSQLGDIYGISIDNLLLK | -1.79
20 | HMNTEKRVFAGVENTRLDHFLVEQFPEFSRTFIQQMIKSANVIVNGNIEKASYKLREGDTIMTRPM | -0.253
21 | HMNTELFTKNLFNKLEVLLGEKNWKSKTAQLLNISSDAFYKKIRNESQLNLHELLLIKDTFKISIDALLDE | -1.24
22 | HMNTETAVTKAIDQIQVMMDLRNRSVSFTRDQETGTDIIKVIDDNTGDTIRQMPSEELLTFMKNLTQ | 0.147
23 | HMNTFKNIFIQEGDLFNLKKNDNQIIFAKEGILINENKKIFRLLNGKIISTNNNRLIGFEFDKIDYNLSN | 0.489
24 | HMNTGIPHQEVIKKLYSFAEGGDWKGLKEELNRIKEYTLFYNSVKELADSFEINRLIEKLKTYIF | 0.0146
25 | HMNTGLSEREHEIAQLVLQGRTYAEIGAELFISPRTAEHHIGQIRRRLAATSRSDLLAKLRVAMNTTEGAG | -1.27
26 | HMNTISYTELIKQIDEGNVEKVEMTVGSTSVKVKLQGQEEEKKAIVPNTQAFVELIQEKTLEGNQIDLKQN | -0.0333

Row | Sequence | soluble fraction (log2)
27 | HMNTLSPVRILAILDGRSSMAEWQLAEELGVSIDNLSEILNKMSTDGQIRLVPSEDGRMVVP | 0.265
28 | HMNTPALRQRTQDVPALLIHFAKYFATKGQTPISFAPDFLEALKDYPWPGNVRELRNLVESMVV | -0.0746
29 | HMNTPHLTPREREVLKGIVDGLINKEIAARMGVSVATVITHRNNLTEKLGTRSVSALTIFAVMHGIVR | -2.49
30 | HMNTPNYDVLYRGLADADAGQIMEALQKSNIPFKVDSHSGVLLVPADQVHEARLKLASQGLPRG | 0.0262
31 | HMNTPTLLLYGGKDHSVPEAGIRHLRAHLSANDRGEYRFYPNAPHLLLQSRQWQQVSQDISQWLAMT | 0.141
32 | HMNTRWDDAAQTWLRKVIEQQPVLVQISAAKRLRDQAEQRAREAGEEVVTEQHVKRAGLELGFGEP | 0.0799
33 | HMNTSITVPSLKGLSQEAATLKMERLGLHVEVSDTGFVRSLAFGTVLQQSIAPGEKVKPGRLVYITINSD | -1.96
34 | HMNTVAGAISDLSFKVRGSEDIEKLNRLKALSIQAKLDVQGQEEAERLISELEAKYGSLGMTVDKVSGKIA | 0.158
35 | HMNTYEIIGGDNRARGPVTGEELSQWIREGRASGHTMARVSDGEHWQPLGSFPEFVGPLQGLPW | 0.127
36 | HMNTYVLPDALKSQLSVEDTGMLTKQLQALPETLAEGVLDSLSQMLSKNTLQNPVGWMLAVMKRAREGNFN | -0.00363
37 | HMNVAVSEADAKAAALERVSGATEADIRMELELDDGYYVYEGDIIYQQKEYEFEIDAQTGKFLKWSEER | -0.14
38 | HMNVDLLEARIPIQSHGMRLDQVVAELFPDYSRNRLAAWIKEGRLTVDGKTMKPRDRALASAHVVLEVV | -0.18
39 | HMNVGKYILTLAAKEGYSQSDVARRTGISRQMLSYIIAGERKLTLPQALKIESLLSLKTGTLILMQDED | -3.41
40 | HMNVNEIREMYPEGTQIVLTEMRGENQMPYGLKGTVKFVDDAGQIHMKWENGSSLALNINEDTFEKVE | 0.147
41 | HMNVPATAEAYEALLADAESVGKSLWGHEAKRFAAEQALLSAGLREVIQVDPDKARELALRLRGLLDEYRG | 0.13
42 | HMNVQGFVFDLAEPLDKVPSIEGFPLKLEDPLTLVAAVNKDRSINALFAELSKLNIKIKSMRNE | 0.15
43 | HMNVVSIEHIRTHLQNHLSLIGRSIEESFNEAKVIAFVASLFLTHRGYASVSQDMGTNGEIYLQDLW | -0.381
44 | HMNVWGLSERELEATRLLIEGFSSKEASARMGISPSTVRSLWGRARAKMGVDSIEDARELVA | -0.236
45 | HMNYAVTAARRESILNAALEIFGKSGYNGSSVKQVALAVGMTEAGVLHHFGTKSNLLIEVLRV | ≥ 0.62
46 | HMNYLDVNIPVTSAVWMGKQLPEMGTLIYLTPDKDVEGMLFIKQATKDKPDGEYIEAKVLGYKEGRVLFDF | -0.547
47 | HMPAEEVPLYKAVVVTTPPNRLRVRFSPAGDFKRWLQSGEEVDVYQELGDWRRIEPNGWSSAEWLQRVG | -0.157
48 | HMPAGWIPARIRLADYPQLRSLAWHVQGIDTLTPTEALDIYERNARHLDAQAMSAQEQDLLASLRLALS | -0.839
49 | HMPALPGNELLRNLMLEHGLKQVDLAEIGSQGVVSEILSGKRRINRRHADLLARRFSLPAELFSR | -0.133
50 | HMPANLTPDYFKAEQWYRSASTNEEKMLALEQMLAVMPKHKGTEHLQADLKRKLSQLKDASAQ | 0.148
51 | HMPAPAPDIPYHSRVSVRRADGFYEGTWTNTAPILDYTGRWMVNVSLGGKRVFVPVEEVVVH | -0.862
52 | HMPAPKPSGALSLKDEPLYAASDSKRRSGTVSGTYYRWDGENVNGRMRITNKQENIGKAGQVTGWITAH | 0.087

Row | Sequence | soluble fraction (log2)
53 | HMPASTSIPYSDFISRVESGDVQEAKIGESAITGTYKDGSQFKTVKPPTLDTNLMPTLIQNKVNVVGVEP | 0.18
54 | HMPAVGGVVKGAVVSVGRNEVRLDIGGLAIGIIRGPELDKHVDLRIGDEVEATVITLDNEFGELELSL | -0.72
55 | HMPAVTEQTKTNLRRAFWQLYEQKPIQKITVKQITDLAGYNRGTFYLYFKDVYDLLDDIENK | -0.704
56 | HMPAVTEQTRANLRTAFWSLYREKPTSKITVREITDRAGYNRATFYLYYRDVYDLFEQIEQEIL | -2.36
57 | HMPDAGQRRYLELVTALAGARSLTIDDLERRAIRFAEWGNGYSGRTARQFIDTLLQDRGVAEEL | -0.405
58 | HMPDAIPLETIIKNVNVLAGFLINSKTFTEDDIVMAYNNIMKIKGDHTDEKTLTNDVYTLLTEMN | -0.469
59 | HMPDIFDRGTAHITDAASGVAITFTRTFRIPPEVTMTHKGGTVVAIARLVGSITTGGFTAVLENT | -0.264
60 | HMPDLQDTLYRLVPEDGSAIGNQSLREKFLSTAKDASDADFEAARDGLVEQGKLTKGKGRGGSVRRAEP | 0.389
61 | HMPDLSMLDEVLDEYRSQAGSLVTVLQKAQDLYGYLPLTILRHIAEEMNIKPAQVYGVATFYTQFRL | -0.0547
62 | HMPDRQKDIQNWQQIAETLLNMLDKYVAALETGKTGLAEAYKAIFAETLRRLDDRLDPEQFLP | -1.54
63 | HMPDTETLTPRQRQILDLVQELGFTTIETLAERFGVSAQTVRREIIRLQAGNFLQRFHGGAGLASGGIRSA | -0.632
64 | HMPDYAFEGVVIKLTHRDYDRWKAGFPDVDLPPYLTARDAWLSEQTPADRKNWFVSTATDLRNFQKREAI | -1.66
65 | HMPEDQISYTDLIKQINDGNVEKIKMTVGSTTIKVNLKEQEEPKTAIVPSTQAFIELVQEKVQDGNEITLI | 0.119
66 | HMPEITPAMIKALLSSLSEELAFASVTKVYAVLHNLFKAALLDDTIDRNPMDKVPRPRKSKDAAL | -0.38
67 | HMPELPEVETSRRGIEPHLVGATILHAVVRNGRLRWPVSEEIYRLSDQPVLSVQRRAKYLLLELQA | 0.0555
68 | HMPELSPEERAIIETLQKNNDLQVNIIAIKTGMDMGSLSAVLFDLEMKGLVKLLAGGMYHLI | -0.148
69 | HMPEPAPALPAKTRVSIRRETGGIIWHEGAWTISPPIRAYDGRWYVAVTTARKGIEFVPVSSVIRS | -1.07
70 | HMPEPMKLSDLPPELWQRVSDLFDEVIDLPETDRIPYIRNLWGSEPLVAKELMALLVAAANVD | -0.274
71 | HMPESFSEMQKRTGVGEFSDDALSAKYVDSIDADVMSLDEYIMKVRGISLDDLEAERALRAR | 0.0325
72 | HMPETAQLTDIQVSRSQAHTGIFSLHYYLTGTDSRGERVRLEISGDDYTRLSGSSSVTVEYYRHTGRIVRY | -1.55
73 | HMPETYVVFSKDGYANLRRGTTINSEILDVLDNGEYVTKLDEVGEWYRVEYADFDGGYIHKSQLKNI | -0.252
74 | HMPFDRTVQLAGARARQLQALPRYREVLRLLDEGMNPREIGQVLDPPVTRQRASALIQQAKRAQMLGLFED | -0.857
75 | HMPFNLKSLADRLSHVFPGLVKMRDDIGAIIVMDKIKVTEHGVTEGGGLAADRVRAVYNEFIKEY | 0.195
76 | HMPFSLHGVNEGSRNDNAARIAGYLISKNLNLDFVRIFLHNWNRDNKPPLPQQEIDSVVDNVKKTHDRKN | -0.828
